Experimental data reported in patent US20240261333A1 (published 2024).

Tests used:
Test in all cases: co-IP with mouse anti-FLAG from lysate of cells overexpressing N-FLAG B3GNT2, then mass spectrometry
CAPRIN1 = target: T1, CAPRIN1 (human, UniProt Q14444 2-709)
T1 construct: Identified by mass spectrometry in the co-IP; also called NP_005889.3 (+1)
T1 sequence (looked up): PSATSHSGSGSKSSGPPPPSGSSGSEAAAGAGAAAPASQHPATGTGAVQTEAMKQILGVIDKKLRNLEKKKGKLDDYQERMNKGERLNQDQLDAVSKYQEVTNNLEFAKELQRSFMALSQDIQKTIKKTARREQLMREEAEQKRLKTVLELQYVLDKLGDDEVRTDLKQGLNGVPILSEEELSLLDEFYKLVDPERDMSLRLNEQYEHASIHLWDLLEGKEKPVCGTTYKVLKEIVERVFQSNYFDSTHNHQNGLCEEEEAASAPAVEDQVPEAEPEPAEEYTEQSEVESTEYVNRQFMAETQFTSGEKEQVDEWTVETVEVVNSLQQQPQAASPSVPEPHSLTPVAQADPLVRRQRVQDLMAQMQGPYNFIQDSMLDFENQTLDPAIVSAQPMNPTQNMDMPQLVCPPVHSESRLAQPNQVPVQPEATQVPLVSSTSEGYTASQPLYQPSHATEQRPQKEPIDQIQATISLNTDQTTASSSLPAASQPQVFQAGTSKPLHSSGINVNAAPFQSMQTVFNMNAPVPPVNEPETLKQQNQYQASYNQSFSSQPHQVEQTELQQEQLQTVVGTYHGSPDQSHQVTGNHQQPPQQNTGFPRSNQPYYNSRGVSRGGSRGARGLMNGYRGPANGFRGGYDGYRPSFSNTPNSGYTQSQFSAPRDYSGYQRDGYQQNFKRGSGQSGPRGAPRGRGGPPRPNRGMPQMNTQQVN
Method: (§1) Cells were plated in 10-cm cell culture dishes and grown to 60-80% confluency. For each condition, two biological replicates were harvested for co-IP. Cells were washed with PBS and 4 mL of lysis buffer (20 mM HEPES, 1% Triton X-100, 150 mM NaCl, 1 mM EDTA, and 10% glycerol) containing protease inhibitor cocktail was added. Cells were scraped and lysate was incubated at 4° C. under rotary agitation for 1 h. Lysate was centrifuged at 14,000×g for 10 min at 4° C. Supernatant was transferred to a new tube and an aliquot was taken as the input. […] For Western blots, 10 μg/mL Chicken Anti-FLAG (Aves labs ET-DY100) and IgY control (R&D Systems AB-101-C) antibodies were biotinylated (Thermo Fisher Scientific 90407) and added to the respective conditions. Lysates with antibodies were incubated at 4° C. under rotary agitation overnight. For each mL of lysate, 50 μL of Pierce Protein A/G Magnetic Beads (Mass spectrometry; Thermo Fisher Scientific 88803) or Pierce Streptavidin Magnetic Beads (Western blot; Thermo Fisher Scientific 88817) was washed twice with lysis buffer. Lysates with antibodies were added to the beads and incubated at 4° C. under rotary agitation for 4 h. Beads were washed with lysis buffer 3 times and resuspended in lysis buffer for storage.
(§2) Magnetic beads were resuspended in 100 mM Tris pH 7.8, reduced, alkylated and digested with trypsin at 37° ° C. overnight. This solution was subjected to solid phase extraction to concentrate the peptides and remove unwanted reagents followed by injection onto a Shimadzu HPLC with fraction collector. Eight fractions were collected and after concentration were injected on a Waters NanoAcquity HPLC equipped with a self-packed Aeris 3 μm C18 analytical column 0.075 mm by 20 cm, (Phenomenex). Peptides were eluted using standard reverse-phase gradients. The effluent from the column was analyzed using a Thermo Orbitrap Elite mass spectrometer (nanospray configuration) operated in a data dependent manner for 54 minutes. The resulting fragmentation spectra were correlated against the known database using Proteome Discover 1.4 (Thermo Fisher Scientific).

TAF15 = target: T2, TAF15 (human, UniProt Q92804-2 1-589, limits assumed)
T2 construct: Identified by mass spectrometry in the co-IP; also called NP_003478.1 (+1)
T2 sequence (Q92804 other isoform, or with tags, fused parts or gaps limits assumed): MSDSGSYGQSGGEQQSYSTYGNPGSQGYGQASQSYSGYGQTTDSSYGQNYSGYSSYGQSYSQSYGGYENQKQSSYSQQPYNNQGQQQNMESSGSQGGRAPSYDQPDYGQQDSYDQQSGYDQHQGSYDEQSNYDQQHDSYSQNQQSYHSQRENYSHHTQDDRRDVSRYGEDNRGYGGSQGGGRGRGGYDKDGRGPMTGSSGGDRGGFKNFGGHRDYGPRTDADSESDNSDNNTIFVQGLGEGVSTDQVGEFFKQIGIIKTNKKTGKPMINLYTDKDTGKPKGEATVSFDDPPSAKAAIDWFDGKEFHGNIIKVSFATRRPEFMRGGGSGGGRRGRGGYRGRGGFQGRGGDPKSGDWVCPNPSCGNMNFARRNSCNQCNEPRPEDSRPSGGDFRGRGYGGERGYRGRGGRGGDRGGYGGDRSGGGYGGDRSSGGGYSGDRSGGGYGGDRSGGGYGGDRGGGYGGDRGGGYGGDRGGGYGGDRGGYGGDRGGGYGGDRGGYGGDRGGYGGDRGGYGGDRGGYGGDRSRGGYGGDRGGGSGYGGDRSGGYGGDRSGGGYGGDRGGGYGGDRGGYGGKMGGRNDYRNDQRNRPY
Method: as §1, §2

SRP14 = target: T3, SRP14 (human, UniProt P37108 2-136)
T3 construct: Identified by mass spectrometry in the co-IP; also called NP_003125.3
T3 sequence (looked up): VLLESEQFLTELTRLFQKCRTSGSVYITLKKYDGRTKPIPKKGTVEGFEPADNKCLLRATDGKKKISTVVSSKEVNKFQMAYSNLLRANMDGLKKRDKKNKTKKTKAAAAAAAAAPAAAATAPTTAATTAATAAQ
Method: as §1, §2

EIF3I = target: T4, EIF3I (human, UniProt Q13347 1-325)
T4 construct: Identified by mass spectrometry in the co-IP; also called NP_003748.1
T4 sequence (Q13347 whole entry): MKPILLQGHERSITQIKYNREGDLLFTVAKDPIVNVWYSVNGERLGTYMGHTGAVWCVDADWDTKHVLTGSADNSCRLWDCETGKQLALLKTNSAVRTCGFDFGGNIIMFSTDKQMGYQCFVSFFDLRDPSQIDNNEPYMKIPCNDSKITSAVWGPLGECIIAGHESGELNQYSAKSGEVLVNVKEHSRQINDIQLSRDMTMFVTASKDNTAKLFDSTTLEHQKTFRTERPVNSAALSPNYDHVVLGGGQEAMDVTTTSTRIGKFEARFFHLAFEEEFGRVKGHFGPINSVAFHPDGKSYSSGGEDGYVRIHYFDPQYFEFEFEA
Method: as §1, §2

MAGED2 = target: T5, MAGED2 (human, UniProt Q9UNF1 2-606)
T5 construct: Identified by mass spectrometry in the co-IP; also called NP_803182.1
T5 sequence (looked up): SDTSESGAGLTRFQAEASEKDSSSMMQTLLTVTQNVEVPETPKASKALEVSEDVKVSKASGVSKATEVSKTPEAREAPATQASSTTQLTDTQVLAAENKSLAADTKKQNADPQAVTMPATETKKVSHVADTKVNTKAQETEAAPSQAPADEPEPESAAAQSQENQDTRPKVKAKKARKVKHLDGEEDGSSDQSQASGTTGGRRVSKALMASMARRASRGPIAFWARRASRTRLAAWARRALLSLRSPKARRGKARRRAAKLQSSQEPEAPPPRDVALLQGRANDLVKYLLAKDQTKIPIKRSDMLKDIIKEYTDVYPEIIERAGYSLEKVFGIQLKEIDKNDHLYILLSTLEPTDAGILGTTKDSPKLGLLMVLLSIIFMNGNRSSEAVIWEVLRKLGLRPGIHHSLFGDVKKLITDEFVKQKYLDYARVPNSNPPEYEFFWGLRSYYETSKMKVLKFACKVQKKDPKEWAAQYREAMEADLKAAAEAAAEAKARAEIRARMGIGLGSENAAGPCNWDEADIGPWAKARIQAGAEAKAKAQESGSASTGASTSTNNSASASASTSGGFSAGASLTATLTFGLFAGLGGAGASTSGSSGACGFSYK
Method: as §1, §2

PABPC1 = target: T6, PABPC1 (human, UniProt P11940 1-636)
T6 construct: Identified by mass spectrometry in the co-IP; also called NP_002559.2
T6 sequence (P11940 whole entry): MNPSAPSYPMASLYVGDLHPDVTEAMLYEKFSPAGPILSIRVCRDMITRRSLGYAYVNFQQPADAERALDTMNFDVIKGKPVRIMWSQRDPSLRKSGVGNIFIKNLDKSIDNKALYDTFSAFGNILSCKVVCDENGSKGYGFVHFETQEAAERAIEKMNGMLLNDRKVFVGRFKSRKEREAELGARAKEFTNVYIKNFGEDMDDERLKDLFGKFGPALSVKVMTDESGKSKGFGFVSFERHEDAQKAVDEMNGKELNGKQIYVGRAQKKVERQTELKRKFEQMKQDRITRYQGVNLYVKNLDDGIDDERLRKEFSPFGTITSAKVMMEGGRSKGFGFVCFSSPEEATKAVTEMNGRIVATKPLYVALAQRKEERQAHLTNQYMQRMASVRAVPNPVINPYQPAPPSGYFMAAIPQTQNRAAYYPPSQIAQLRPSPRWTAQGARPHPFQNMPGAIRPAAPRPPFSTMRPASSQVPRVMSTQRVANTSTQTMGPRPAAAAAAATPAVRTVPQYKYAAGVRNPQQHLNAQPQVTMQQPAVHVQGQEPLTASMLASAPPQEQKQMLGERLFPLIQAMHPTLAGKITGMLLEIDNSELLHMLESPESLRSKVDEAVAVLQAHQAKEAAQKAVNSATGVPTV
Method: as §1, §2

co-IP mass spectrometry count (N-term FLAG) (CAPRIN1): 7 | co-IP mass spectrometry count (N-term FLAG) (TAF15): 5 | co-IP mass spectrometry count (N-term FLAG) (SRP14): 0 | co-IP mass spectrometry count (N-term FLAG) (EIF3I): 0 | co-IP mass spectrometry count (N-term FLAG) (MAGED2): 0 | co-IP mass spectrometry count (N-term FLAG) (PABPC1): 31
B1: N-terminal FLAG tagged B3GNT2 (enzyme, human, UniProt Q9NY97 1-397, looked up)
chain: MSVGRRRIKLLGILMMANVFIYFIMEVSKSSSQEKNGKGEVIIPKEKFWKISTPPEAYWNREQEKLNRQYNPILSMLTNQTGEAGRLSNISHLNYCEPDLRVTSVVTGFNNLPDRFKDFLLYLRCRNYSLLIDQPDKCAKKPFLLLAIKSLTPHFARRQAIRESWGQESNAGNQTVVRVFLLGQTPPEDNHPDLSDMLKFESEKHQDILMWNYRDTFFNLSLKEVLFLRWVSTSCPDTEFVFKGDDDVFVNTHHILNYLNSLSKTKAKDLFIGDVIHNAGPHRDKKLKYYIPEVVYSGLYPPYAGGGGFLYSGHLALRLYHITDQVHLYPIDDVYTGMCLQKLGLVPEKHKGFRTFDIEEKNKNNICSYVDLMLVHSRKPQEMIDIWSQLQSAHLKC
notes: FLAG-tagged ORF overexpressed in A375 cells; bait of the co-IP with mouse anti-FLAG; also called N-FLAG B3GNT2; N-term FLAG; not shown: N-terminal FLAG tag
